Molecular target: wild-type Pseudomonas testosteroni ketosteroid isomerase (KSI) (Pseudomonas testosteroni)
Assay: SEC

Substance: wild-type Pseudomonas testosteroni ketosteroid isomerase (KSI) (enzyme)
- stoichiometry N: 2

From paper doi:10.1101/2021.07.02.450934
